Experiments:
[1] = biological target: human insulin receptor, A isoform (human) (UniProt P06213); experiment: SPA competition with [125I-A14Y]-human insulin, solubilised hIR-A, […] HSA (Ex 25)
[2] = biological target: human insulin receptor, B isoform (human) (UniProt P06213); experiment: SPA competition with [125I-A14Y]-human insulin, membrane-associated hIR-B, 0.1% HSA (Ex 26)
[3] = biological target: human insulin receptor, A isoform (human) (UniProt P06213); experiment: SPA competition with [125I-A14Y]-human insulin, solubilised hIR-A, 0% HSA (Ex 25)
[4] = biological target: human insulin receptor, A isoform (human) (UniProt P06213); experiment: SPA competition with [125I-A14Y]-human insulin, membrane-associated hIR-A, 0.1% HSA (Ex 26)
[5] = biological target: human insulin-like growth factor 1 receptor (human) (UniProt P08069); experiment: SPA competition with [125I-Tyr31]-human IGF-1, membrane-associated hIGF-1R, 0.1% HSA (Ex 26)

| Substance | relative binding affinity (% rel to HI) [1] | relative binding affinity (% rel to HI) [2] | relative binding affinity (% rel to HI) [3] | relative binding affinity (% rel to HI) [4] | relative binding affinity (% rel to HI) [5] |
| --- | --- | --- | --- | --- | --- |
| A8H, A21A, B3E, desB27, B29K(N(eps)tetradecanedioyl-gGlu-2×OEG), desB30 human insulin (ligand) | 82.3 % rel to HI | 81.9 % rel to HI | 225 % rel to HI | 83.7 % rel to HI | – |
| A8H, A21G, B3E, desB27, B29K(N(eps)tetradecanedioyl-gGlu-2×OEG), desB30 human insulin (ligand) | 42.4 % rel to HI | 90.2 % rel to HI | 100 % rel to HI | 89.6 % rel to HI | – |
| A8R, B3E, desB27, B29K(N(eps)tetradecanedioyl-gGlu-2×OEG), desB30 human insulin (ligand) | 45.5 % rel to HI | 67.9 % rel to HI | 103 % rel to HI | 61.3 % rel to HI | – |
| A21A, B3E, desB27, B29K(N(eps)tetradecanedioyl-4×gGlu), desB30 human insulin (ligand) | 32.3 % rel to HI | 42.3 % rel to HI | 70.5 % rel to HI | 40.5 % rel to HI | – |
| A21A, B3E, desB27, B29K(N(eps)tetradecanedioyl-gGlu-2×OEG), desB30 human insulin (ligand) | 22.3 % rel to HI | 49.6 % rel to HI | 63.4 % rel to HI | 52.1 % rel to HI | – |
| A21A, B3Q, desB27, B29K(N(eps)hexadecanedioyl-4×gGlu), desB30 human insulin (ligand) | 8.2 % rel to HI | 15.4 % rel to HI | 99.5 % rel to HI | 14.1 % rel to HI | – |
| A21A, B3Q, desB27, B29K(N(eps)tetradecanedioyl-4×gGlu), desB30 human insulin (ligand) | 42.4 % rel to HI | 62.9 % rel to HI | 104 % rel to HI | 49.4 % rel to HI | – |
| A21A, B3Q, desB27, B29K(N(eps)tetradecanedioyl-gGlu-2×OEG), desB30 human insulin (ligand) | 32 % rel to HI | 48.8 % rel to HI | 87.7 % rel to HI | 63.8 % rel to HI | – |
| A21G, B3E, desB27, B29K(N(eps)tetradecanedioyl-gGlu-2×OEG), desB30 human insulin (ligand) | 9.2 % rel to HI | 29 % rel to HI | 23.8 % rel to HI | 28.9 % rel to HI | – |

The next lines start with the values.

| relative binding affinity (% rel to HI) [1] | relative binding affinity (% rel to HI) [2] | relative binding affinity (% rel to HI) [3] | relative binding affinity (% rel to HI) [4] | relative binding affinity (% rel to HI) [5] | Substance |
| --- | --- | --- | --- | --- | --- |
| 135 % rel to HI | 124 % rel to HI | 253 % rel to HI | 88.5 % rel to HI | – | A8H, A21A, B3E, desB27, B29K(N(eps)tetradecanedioyl-4×gGlu), desB30 human insulin (ligand) |
| 70.5 % rel to HI | 82.1 % rel to HI | 172 % rel to HI | 84.1 % rel to HI | – | A8H, B3E, desB27, B29K(N(eps)tetradecanedioyl-gGlu-2×OEG), desB30 human insulin (ligand) |
| 37.4 % rel to HI | 36.8 % rel to HI | 63.8 % rel to HI | 31 % rel to HI | – | A14E, A21A, B3Q, desB27, B29K(N(eps)tetradecanedioyl-4×gGlu), desB30 human insulin (ligand) |
| 6.2 % rel to HI | 15 % rel to HI | 69 % rel to HI | 14.2 % rel to HI | – | A21A, B3E, desB27, B29K(N(eps)hexadecanedioyl-4×gGlu), desB30 human insulin (ligand) |
| 3.6 % rel to HI | 13.2 % rel to HI | – | 14.3 % rel to HI | 0.1 % rel to HI | A21A, B3E, desB27, B29K(N(eps)hexadecanedioyl-gGlu-2×OEG), desB30 human insulin (ligand) |
| 5.6 % rel to HI | 14.6 % rel to HI | 76.9 % rel to HI | 15.8 % rel to HI | – | A21A, B3Q, desB27, B29K(N(eps)hexadecanedioyl-gGlu-2×OEG), desB30 human insulin (ligand) |
| – | – | – | – | 4.1 % rel to HI | B3Q, desB27, B29K(N(eps)tetradecanedioyl-4×gGlu), desB30 human insulin (from UniProt P01308 90-110) (ligand) |

Source: patent US20180244743A1
